Measurements published in patent publication US20250387465A1.

Legend:
[1] = target: ferritin-PreF fusion protein RSV-PreF-C-NP (respiratory syncytial virus (Pre-F part); species of the ferritin not stated); assay: ELISA, fusion protein coated, F protein antibody 1:1500 as primary; protein kept 1 h at pH 10, 25 C; against untreated protein; mean of 10- to 10000-fold dilutions
[2] = target: ferritin-PreF fusion protein RSV-PreF-C-NP (respiratory syncytial virus (Pre-F part); species of the ferritin not stated); assay: ELISA, fusion protein coated, F protein antibody 1:1500 as primary; protein kept 1 h at 70 C, pH 7.4; against untreated protein; mean of 10- to 10000-fold dilutions
[3] = target: ferritin-PreF fusion protein RSV-PreF-C-NP (respiratory syncytial virus (Pre-F part); species of the ferritin not stated); assay: ELISA, fusion protein coated, F protein antibody 1:1500 as primary; protein kept 1 h at 50 C, pH 7.4; against untreated protein; mean of 10- to 10000-fold dilutions
[4] = target: ferritin-PreF fusion protein RSV-PreF-C-NP (respiratory syncytial virus (Pre-F part); species of the ferritin not stated); assay: ELISA, fusion protein coated, F protein antibody 1:1500 as primary; protein kept 1 h at pH 3.8, 25 C; against untreated protein; mean of 10- to 10000-fold dilutions
[5] = target: ferritin-PreF fusion protein RSV-PreF-C-NP (respiratory syncytial virus (Pre-F part); species of the ferritin not stated); assay: ELISA, fusion protein coated, F protein antibody 1:1500 as primary; protein kept 1 h at pH 7.4, 25 C (untreated reference); mean of 10- to 10000-fold dilutions
[6] = target: ferritin-PreF fusion protein RSV-PreF-F-NP (respiratory syncytial virus (Pre-F part); species of the ferritin not stated); assay: ELISA with F protein antibody after 1 h at pH 3.8, pH 10, 50 C or 70 C
[7] = target: ferritin-PreF fusion protein RSV-PreF-B-NP (respiratory syncytial virus (Pre-F part); species of the ferritin not stated); assay: as above
[8] = target: ferritin-PreF fusion protein RSV-PreF-E-NP (respiratory syncytial virus (Pre-F part); species of the ferritin not stated); assay: as above
[9] = target: ferritin-PreF fusion protein RSV-PreF-D-NP (respiratory syncytial virus (Pre-F part); species of the ferritin not stated); assay: as above
[10] = target: ferritin-PreF fusion protein RSV-PreF-C-NP (respiratory syncytial virus (Pre-F part); species of the ferritin not stated); assay: as above
[11] = target: ferritin-PreF fusion protein RSV-PreF-H-NP (respiratory syncytial virus (Pre-F part); species of the ferritin not stated); assay: as above
[12] = target: ferritin-PreF fusion protein RSV-PreF-G-NP (respiratory syncytial virus (Pre-F part); species of the ferritin not stated); assay: as above
[13] = target: ferritin-PreF fusion protein RSV-PreF-A-NP (respiratory syncytial virus (Pre-F part); species of the ferritin not stated); assay: as above

F protein antibody (PujianBiotech (Wuhan), Cat #62814)
Percentage of ELISA Signal Intensity Retained After Physical Stress Challenges [1]: 83.6%
Percentage of ELISA Signal Intensity Retained After Physical Stress Challenges [2]: 77.1%
Percentage of ELISA Signal Intensity Retained After Physical Stress Challenges [3]: 91.2%
Percentage of ELISA Signal Intensity Retained After Physical Stress Challenges [4]: 77.3%
Percentage of ELISA Signal Intensity Retained After Physical Stress Challenges [5]: 100%
antigen-binding activity retained against the original untreated protein [6]: > 75%
antigen-binding activity retained against the original untreated protein [7]: > 75%
antigen-binding activity retained against the original untreated protein [8]: > 75%
antigen-binding activity retained against the original untreated protein [9]: > 75%
antigen-binding activity retained against the original untreated protein [10]: > 75%
antigen-binding activity retained against the original untreated protein [11]: > 75%
antigen-binding activity retained against the original untreated protein [12]: > 75%
antigen-binding activity retained against the original untreated protein [13]: > 75%
